Patent publication US20160032013A1 (Genentech, published 2016)

T1: Mouse RON on cells (3T3-mRON cells; mouse colon and skin) (mouse, UniProt Q62190 24-1378)
T1 sequence: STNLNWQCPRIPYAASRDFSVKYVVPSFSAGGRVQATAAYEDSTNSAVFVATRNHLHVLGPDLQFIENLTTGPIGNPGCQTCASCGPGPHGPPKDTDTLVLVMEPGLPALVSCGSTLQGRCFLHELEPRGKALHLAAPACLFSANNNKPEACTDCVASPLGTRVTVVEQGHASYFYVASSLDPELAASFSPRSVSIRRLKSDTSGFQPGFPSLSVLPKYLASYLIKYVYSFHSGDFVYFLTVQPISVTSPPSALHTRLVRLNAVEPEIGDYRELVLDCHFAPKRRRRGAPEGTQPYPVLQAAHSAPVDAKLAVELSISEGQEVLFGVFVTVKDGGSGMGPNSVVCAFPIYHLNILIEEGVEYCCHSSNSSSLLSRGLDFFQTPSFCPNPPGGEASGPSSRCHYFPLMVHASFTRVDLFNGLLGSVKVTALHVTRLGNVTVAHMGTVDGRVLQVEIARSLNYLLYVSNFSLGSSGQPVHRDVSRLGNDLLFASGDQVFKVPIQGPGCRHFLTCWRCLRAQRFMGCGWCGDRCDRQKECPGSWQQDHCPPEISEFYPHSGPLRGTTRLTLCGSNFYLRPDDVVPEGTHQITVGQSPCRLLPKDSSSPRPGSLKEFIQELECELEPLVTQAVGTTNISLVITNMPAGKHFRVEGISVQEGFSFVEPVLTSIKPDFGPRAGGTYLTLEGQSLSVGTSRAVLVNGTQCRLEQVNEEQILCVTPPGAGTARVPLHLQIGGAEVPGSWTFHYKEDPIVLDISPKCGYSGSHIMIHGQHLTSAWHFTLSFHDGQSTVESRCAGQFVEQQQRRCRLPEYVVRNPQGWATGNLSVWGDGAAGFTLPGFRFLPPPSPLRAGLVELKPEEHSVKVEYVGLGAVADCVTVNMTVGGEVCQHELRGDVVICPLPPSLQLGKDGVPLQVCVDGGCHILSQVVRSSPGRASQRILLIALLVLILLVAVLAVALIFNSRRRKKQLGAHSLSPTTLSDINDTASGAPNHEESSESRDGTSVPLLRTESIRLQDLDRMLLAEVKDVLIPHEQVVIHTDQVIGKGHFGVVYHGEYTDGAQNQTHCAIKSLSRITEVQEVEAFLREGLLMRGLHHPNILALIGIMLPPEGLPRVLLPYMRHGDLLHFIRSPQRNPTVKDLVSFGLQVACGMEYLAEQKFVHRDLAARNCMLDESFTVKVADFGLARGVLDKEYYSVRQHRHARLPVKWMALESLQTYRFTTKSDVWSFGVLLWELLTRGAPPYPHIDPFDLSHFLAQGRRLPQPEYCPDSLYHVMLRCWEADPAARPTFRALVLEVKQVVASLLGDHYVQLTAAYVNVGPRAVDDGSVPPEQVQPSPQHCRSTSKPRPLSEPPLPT


Tests used:
[1] = molecular target: T2, Mouse RON-hIgG1 Fc (murine RON Sema/PSI/IPT1, natural leader + R33-V684, fused to human IgG1 Fc) (mouse); experiment: SPR (Biacore), anti-Fc chip; legend names murine RON-Fc; the sheet's scheme ('RON or MSP' over 'MSP-Fc or RON-Fc') and have the MSPβ-Fc fusion captured and soluble RON-His injected
T2 construct: also called mRON-hFc; murine RON-Fc
Description: Binding kinetics of RON to MSP β-Fc fusion proteins and MSP proteins to RON-Fc fusions were determined using a Biacore 3000 optical biosensor equipped with a research-grade CM5 sensor chip (GE Healthcare). Amine coupling reagents, N-ethyl-N′-dimethylamino-propylcarbodiimide (EDC), N-hydroxy-succinimide (NHS) and sodium ethanolamine HCl, pH 8.5, were obtained from GE Healthcare. Standard coupling protocols were used to tether a rabbit anti-human IgG1 or rabbit anti-murine IgG2a (Jackson ImmunoResearch Laboratories) onto the biosensor surface. A biosensor chip that was subjected to the amine coupling procedure with no protein coupled was used to correct for non-specific binding. […] Various concentrations (500-3.9 nM, 2-fold dilution series) of RON-His, were injected in HBS-P buffer (10 mM HEPES, pH 7.5, 150 mM NaCl, 0.005% P20) at 25° C. with a flow rate of 30 μL/min and dissociation monitored for 240 sec. Between measurements, the biosensor surfaces were regenerated with a 120 s pulse of 10 mM glycine-HCl pH 1.5 followed by a 120 s wash with running buffer.

[2] = molecular target: T3, Human RON-hIgG1 Fc (RON Sema/PSI/IPT1 fused to human IgG1 Fc) (human); experiment: BLI using RON-Fc at 30 C
T3 construct: also called RON-Fc; hRON-Fc
Description: Real-time kinetic measurements of MSP binding to RON were conducted using an Octet RED384 (ForteBio, Inc). Samples or buffer were dispensed into 96-well microtiter plates (Greiner Bio-One North America, Inc.) at a volume of 200 μl per well. Anti-human IgG Fc Biosensors were used for the experiments. Each experiment consisted of three steps: incubation with ForteBio Kinetic buffer diluted 1:10 in PBS assay buffer to establish an equilibrium for 120 s (baseline), incubation with 10 μg/ml RON-Fc in assay buffer to coat the biosensor with binding target for 900 s (load), incubation with MSP, MSP β or scMSP in assay buffer containing various concentrations (75-4.7 nM, 2-fold dilution series) for 400 s (association), and incubation with assay buffer to measure the off-rate of MSP for 400 s (dissociation). Operating temperature was maintained at 30° C. Data were generated automatically by the Octet Data Acquisition 7.0 software. Each data set was fitted globally to a simple one-to-one binding model using ForteBio Analysis Software 7.0 to determine the kinetic parameters kₐ and kd. The equilibrium dissociation constants (KD) were then calculated as a ratio (koff/kₒₙ) of these rate constants.

[3] = molecular target: T3, Human RON-hIgG1 Fc (RON Sema/PSI/IPT1 …); experiment: SPR capturing RON-Fc at 25 C
Description: To determine MSP protein binding kinetics to hRON-Fc or mRON-Fc fusion proteins, between 50 and 100 response units (RU) were captured on each of three immobilized anti-human Fc surfaces. Various concentrations (50-0.78 nM, 2-fold dilution series) of MSP, MSP β, MSP α or scMSP were injected in HBS-P buffer (10 mM HEPES, pH 7.5, 150 mM NaCl, 0.005% P20) at 25° C. with a flow rate of 30 μL/min and dissociation monitored for 4 min. Between measurements, the biosensor surfaces were regenerated with a 2 min pulse of 10 mM glycine-HCl pH 1.5.

[4] = molecular target: T4, Recombinant human RON Sema/PSI (residues E25-P568) with C-terminal His-tag (human, UniProt Q04912 25-568); experiment: SPR using immobilized RON Sema/PSI at 25 C
T4 construct: Made in Trichoplusia ni insect cells

[5] = molecular target: T1, Mouse RON on cells (3T3-mRON cells; …); experiment: cell-based or functional assay
[6] = molecular target: T1, Mouse RON on cells (3T3-mRON cells; …); experiment: flow cytometry on 3T3-mRON cells

T3 sequence (chain, as listed by the source limits assumed): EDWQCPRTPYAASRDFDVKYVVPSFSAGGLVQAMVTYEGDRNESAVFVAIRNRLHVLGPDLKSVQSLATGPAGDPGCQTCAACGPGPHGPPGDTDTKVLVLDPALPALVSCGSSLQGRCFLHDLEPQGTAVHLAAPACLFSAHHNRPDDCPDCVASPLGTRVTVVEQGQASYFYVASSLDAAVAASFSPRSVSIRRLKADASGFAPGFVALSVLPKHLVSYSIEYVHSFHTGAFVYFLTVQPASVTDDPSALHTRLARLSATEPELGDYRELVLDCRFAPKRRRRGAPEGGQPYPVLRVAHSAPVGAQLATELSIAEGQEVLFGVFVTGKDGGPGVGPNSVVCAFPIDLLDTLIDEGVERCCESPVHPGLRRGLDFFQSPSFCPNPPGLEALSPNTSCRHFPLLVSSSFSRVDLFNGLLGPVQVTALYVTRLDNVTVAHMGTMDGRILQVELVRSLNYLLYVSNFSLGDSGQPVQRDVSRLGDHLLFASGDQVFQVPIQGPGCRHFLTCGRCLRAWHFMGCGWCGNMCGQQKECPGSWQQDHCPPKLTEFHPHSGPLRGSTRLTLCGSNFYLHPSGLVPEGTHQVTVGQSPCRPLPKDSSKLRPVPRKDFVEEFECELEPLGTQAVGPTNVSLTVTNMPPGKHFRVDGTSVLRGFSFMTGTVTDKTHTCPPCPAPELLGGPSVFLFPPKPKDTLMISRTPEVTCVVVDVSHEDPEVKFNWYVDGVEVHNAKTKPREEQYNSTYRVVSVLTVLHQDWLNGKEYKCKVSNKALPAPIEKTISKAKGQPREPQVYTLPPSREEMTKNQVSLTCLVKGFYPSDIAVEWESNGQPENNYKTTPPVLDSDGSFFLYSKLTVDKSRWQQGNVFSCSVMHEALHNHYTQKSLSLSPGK

| Binder | Kd [1] [nM] | fold increase in Akt phosphorylation, MSD, colon of injected mice [5] [fold] | EC50 (read off the curve) [6] [µg/mL] | other results |
| --- | --- | --- | --- | --- |
| Human MSP β R689C (HGF leader + V484-G711 + C588S + C672A + R689C + His tag) (ligand, This is an inference) VVGGHPGNSPWTVSLRNRQGQHFCGGSLVKEQWILTARQCFSSCHMPLTGYEVWLGTLFQNPQHGEPSLQRVPVAKMVCGPSGSQLVLLKLERSVTLNQRVALISLPPEWYVVPPGTKCEIAGWGETKGTGNDTVLNVALLNVISNQECNIKHRGRVRESEMCTEGLLAPVGACEGDYGGPLACFTHNAWVLEGIIIPNRVCARSCWPAVFTRVSVFVDWIHKVMRLGHHHHHH | – | – | – | Kd [2]: 9.1 nM; koff [2]: 0.0093 s⁻¹; kon [2]: 1.75e+06 M⁻¹ s⁻¹; Kd [3]: 9 nM; koff [3]: 0.0479 s⁻¹; kon [3]: 5.75e+06 M⁻¹ s⁻¹; Kd [4]: 9.1 nM; koff [4]: 0.0142 s⁻¹; kon [4]: 1.3e+06 M⁻¹ s⁻¹ |
| Mouse MSP β-L12-mIgG2a Fc (Fc fusion, also called m12m; mMSPβ-L12-mIgG2a) VVGGHPGNSPWTVSLRNRQGQHFCGGSLVKEQWVLTARQCIWSCHEPLTGYEVWLGTINQNPQPGEANLQRVPVAKAVCGPAGSQLVLLKLERPVILNHHVALIALPPEQYVVPPGTKCEIAGWGESIGTSNNTVLHVASMNVISNQECNTKYRGHIQESEICTQGLVVPVGACEGDYGGPLACYTHDAWVLQGLIIPNRVCARPRWPAIFTRVSVFVDWINKVMQLEKKIEPRGPTIKPCPPCKCPAPNLLGGPSVFIFPPKIKDVLMISLSPIVTCVVVDVSEDDPDVQISWFVNNVEVHTAQTQTHREDYNSTLRVVSALPIQHQDWMSGKEFKCKVNNKDLPAPIERTISKPKGSVRAPQVYVLPPPEEEMTKKQVTLTCMVTDFMPEDIYVEWTNNGKTELNYKNTEPVLDSDGSYFMYSKLRVEKKNWVERNSYSCSVVHEGLHNHHTTKSFSRTPGK | 10.4 | ~2.3 | ~0.05 | – |
| Mouse MSP β-L8-mIgG2a Fc (Fc fusion, also called m8m) VVGGHPGNSPWTVSLRNRQGQHFCGGSLVKEQWVLTARQCIWSCHEPLTGYEVWLGTINQNPQPGEANLQRVPVAKAVCGPAGSQLVLLKLERPVILNHHVALIALPPEQYVVPPGTKCEIAGWGESIGTSNNTVLHVASMNVISNQECNTKYRGHIQESEICTQGLVVPVGACEGDYGGPLACYTHDAWVLQGLIIPNRVCARPRWPAIFTRVSVFVDWINKVMQLEPRGPTIKPCPPCKCPAPNLLGGPSVFIFPPKIKDVLMISLSPIVTCVVVDVSEDDPDVQISWFVNNVEVHTAQTQTHREDYNSTLRVVSALPIQHQDWMSGKEFKCKVNNKDLPAPIERTISKPKGSVRAPQVYVLPPPEEEMTKKQVTLTCMVTDFMPEDIYVEWTNNGKTELNYKNTEPVLDSDGSYFMYSKLRVEKKNWVERNSYSCSVVHEGLHNHHTTKSFSRTPGK | 8.5 | ~2 | ~0.05 | – |
| Mouse MSP β-L4-mIgG2a Fc (Fc fusion, also called m4m) VVGGHPGNSPWTVSLRNRQGQHFCGGSLVKEQWVLTARQCIWSCHEPLTGYEVWLGTINQNPQPGEANLQRVPVAKAVCGPAGSQLVLLKLERPVILNHHVALIALPPEQYVVPPGTKCEIAGWGESIGTSNNTVLHVASMNVISNQECNTKYRGHIQESEICTQGLVVPVGACEGDYGGPLACYTHDAWVLQGLIIPNRVCARPRWPAIFTRVSVFVDWINKVMQLETIKPCPPCKCPAPNLLGGPSVFIFPPKIKDVLMISLSPIVTCVVVDVSEDDPDVQISWFVNNVEVHTAQTQTHREDYNSTLRVVSALPIQHQDWMSGKEFKCKVNNKDLPAPIERTISKPKGSVRAPQVYVLPPPEEEMTKKQVTLTCMVTDFMPEDIYVEWTNNGKTELNYKNTEPVLDSDGSYFMYSKLRVEKKNWVERNSYSCSVVHEGLHNHHTTKSFSRTPGK | 8.3 | ~2.6 | – | – |

Further lines, with some results ahead:

| Kd [1] [nM] | fold increase in Akt phosphorylation, MSD, colon of injected mice [5] [fold] | EC50 (read off the curve) [6] [µg/mL] | Binder | other results |
| --- | --- | --- | --- | --- |
| 10.9 | – | – | h.L16.m DANA (Fc fusion, As h16m, with the D265A and N297A (DANA) mutations in the Fc; also called h16m (DANA); Human MSP β-L16-mIgG2a Fc (DANA)) MSP β-linker-Fc fusion chain: VVGGHPGNSPWTVSLRNRQGQHFCGGSLVKEQWILTARQCFSSCHMPLTGYEVWLGTLFQNPQHGEPSLQRVPVAKMVCGPSGSQLVLLKLERSVTLNQRVALISLPPEWYVVPPGTKCEIAGWGETKGTGNDTVLNVALLNVISNQECNIKHRGRVRESEMCTEGLLAPVGACEGDYGGPLACFTHNSWVLEGIIIPNRVCARSRWPAVFTRVSVFVDWIHKVMRLGQVTDKKIEPRGPTIKPCPPCKCPAPNLLGGPSVFIFPPKIKDVLMISLSPIVTCVVVAVSEDDPDVQISWFVNNVEVHTAQTQTHREDYASTLRVVSALPIQHQDWMSGKEFKCKVNNKDLPAPIERTISKPKGSVRAPQVYVLPPPEEEMTKKQVTLTCMVTDFMPEDIYVEWTNNGKTELNYKNTEPVLDSDGSYFMYSKLRVEKKNWVERNSYSCSVVHEGLHNHHTTKSFSRTPGK | – |
| 8.4 | ~2.5 | ~0.05 | Mouse MSP β-L16-mIgG2a Fc (Fc fusion, also called m16m) VVGGHPGNSPWTVSLRNRQGQHFCGGSLVKEQWVLTARQCIWSCHEPLTGYEVWLGTINQNPQPGEANLQRVPVAKAVCGPAGSQLVLLKLERPVILNHHVALIALPPEQYVVPPGTKCEIAGWGESIGTSNNTVLHVASMNVISNQECNTKYRGHIQESEICTQGLVVPVGACEGDYGGPLACYTHDAWVLQGLIIPNRVCARPRWPAIFTRVSVFVDWINKVMQLEQVTDKKIEPRGPTIKPCPPCKCPAPNLLGGPSVFIFPPKIKDVLMISLSPIVTCVVVDVSEDDPDVQISWFVNNVEVHTAQTQTHREDYNSTLRVVSALPIQHQDWMSGKEFKCKVNNKDLPAPIERTISKPKGSVRAPQVYVLPPPEEEMTKKQVTLTCMVTDFMPEDIYVEWTNNGKTELNYKNTEPVLDSDGSYFMYSKLRVEKKNWVERNSYSCSVVHEGLHNHHTTKSFSRTPGK | – |
